Measurements from paper PMC6079037, “Hydra Mesoglea Proteome Identifies Thrombospondin as a Conserved Component Active in Head Organizer Restriction” (Scientific Reports, 2018).
Ends that are not written are not given here.

Experiments:
[1] = biological target: the molecule itself; experiment: AUC; sedimentation equilibrium; HsTSP1cc 50 uM in PBS, 20 °C, 20,000-50,000 rpm; fitted to a single, ideal species model
[2] = biological target: the molecule itself; experiment: non-reducing SDS-PAGE and immunoblot; V5-tagged proteins from conditioned media of transfected COS7 cells, collected on Talon resin, boiled in SDS sample buffer without DTT; 7% SDS-polyacrylamide gels; V5 antibody blot

Protein	stoichiometry N [1] [x monomer mass]	stoichiometry N [2]
Ac-GDELSSMVLELRGLRTIVTTLQDSIRKVTEENKELANELRRGW (added residue before the TSP1 stretch; human thrombospondin-1 (TSP1), coiled-coil domain, residues 275-314; added residues after the TSP1 stretch (the Trp is used to measure concentration at 280 nm); 43-mer; Made on Rink amide resin, so the C-terminus is probably an amide (surmised); source: synthetic peptide (Fmoc solid phase on Rink amide resin), purified by RP-HPLC)	2.96	
human TSP1.V5 (thrombospondin-1 with V5 tag) (natural protein, human thrombospondin-1 (TSP1); calculated monomer molecular weight of TSP1.V5 132.3 kDa) not shown		3
